The results in this text go back to the nanobody polyreactivity screen of Harvey et al. (2022).

The data set can be described thus: yeast display, Sf9 membrane polyspecificity reagent, FACS + sequencing; frameworks hold sequencing errors. In outline:
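Genes from sorted yeast were amplified by colony PCR, read by MiSeq 2 × 250 sequencing and filtered on CDR length. These cells carried a synthetic nanobody library in Saccharomyces cerevisiae BJ5465 and were sorted by FACS into low and high (top ~1%) gates on anti-HA and streptavidin fluorescence. Polyreactivity is labelled according to the gate of origin.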
Regarding “QVQLVESGGGLVQAGGSLRLSCAASGSTFAANAMGWYRPAPGKERELVAAITSSGGSTYYADSVKGRFTISRDNAKNTVYLQMNSLKPEDTAVYYCNKDIERYVRIYDSWGQGTQVTVSS”, the “polyreactivity (PSR sort gate)” value is “low polyreactivity”.

Regarding “QVQLVESGGGLVQAGGSLRLSCAASGSTFAANAMGWYRQAPGKERELVAAIDSSTGSTYYADSVKGRFTISRDIAKNNVFLQMNRLKPEDTAVYYCNKTSFLVKLDYWGQGTQVTVSS”, the “polyreactivity (PSR sort gate)” value is “low polyreactivity”.

In the case of “QVQLVESGGGLVQAGGSLRLSCAASGSTFAANAMGWYRQAPGKERELVAAITSSGGSTYYADSVKGRFTISRDNAKNTVYLQLNSLKPEVTAVYYCNKDIERYVRIYDSWGQGTQVTVSS”, the “polyreactivity (PSR sort gate)” value is on record as “low polyreactivity”.

As to “QVQLVESGGGLVQAGGSLRLSCAASGSTFAFNAMGWYRQAPGKEREFVARITWTYGSTYYADSVKGRFTISRDNAKNTVYLQMNSLKPEDTAVYYCARDPTEQAIARWTYDYWGQGTQVTVSS”, the “polyreactivity (PSR sort gate)” value is on record as “low polyreactivity”.

As to “QVQLVESGGGLVQAGGSLRLSCAASGSTFAFNAMGWYRQAPGKERELVAGITWSSGSTYYADSVKGRFTISRDNAKNTVYLQMNSLKPEDTAVYYCAVSGTRTIWGQGTQVTVSS”, the “polyreactivity (PSR sort gate)” value is listed as “high polyreactivity”.

As for “QVQLVESGGGLVQAGGSLRLSCAASGSTFAFNTKGWYRQAPGKERELVAGISSNGGRTYYADSVKGRFTISRDNAKNTVYLQMNSLKPEDTAVYYCNALRRYVSVRPTKSDDWGQGTQVTVSS”, the “polyreactivity (PSR sort gate)” value was “high polyreactivity”.

Consider “QVQLVESGGGLVQAGGSLRLSCAASGSTFAFYAMGWYRQAPGKERELVAAISRSGGRTYYADSVKGRFTISRDNAKNTVYLQMNSLKPEDTAVYYFAAPSSITTGPHREYDYWGQGTQVTVSS”, for which the “polyreactivity (PSR sort gate)” value is “high polyreactivity”.

Consider “QVQLVESGGGLVQAGGSLRLSCAASGSTFAFYAMGWYRQAPGKERELVAAISSSGARTYYADSVKGRFTLSRDNAKNTVYLQMNSLKPEDTAVYYCAAAFYRLYITSYYYWGQGTQVTVSS”, for which the “polyreactivity (PSR sort gate)” value is reported as “high polyreactivity”.

Consider “QVQLVESGGGLVQAGGSLRLSCAASGSTFAGNAMGWYRQAPGKERELVAAITSGTGTHYADSVKGRFTISRDNAKNSVYLQMNSLKPEDTAVYYCAAEVWTWAGIWGYEYWGQGTQVTVSS”, for which the “polyreactivity (PSR sort gate)” value was “low polyreactivity”.

“QVQLVESGGGLVQAGGSLRLSCAASGSTFAGNGMGWYRQAPGKERELVAGIDVTGGSSYYADSVKGRFTISRDNAKNTVYLQMNSLKPEDTAVYYCNTVWYRGGIDYYWGQGTQVTVSS”: the “polyreactivity (PSR sort gate)” value is on record as “low polyreactivity”.

For “QVQLVESGGGLVQAGGSLRLSCAASGSTFAGYTLGWYRQAPGKERELVAAITSRGGRTYYADSVKGRFTISRDHAKNTVYLQMNSLKPEDTAVYYCAAVSRYYAALMYYWGQGTQVTVSS”, the “polyreactivity (PSR sort gate)” value is recorded as “high polyreactivity”.

As to “QVQLVESGGGLVQAGGSLRLSCAASGSTFAINAMGWYRQAPGKERELVAAISSSGSTNYADSVKGRFTISRDNAKNTVYLQMNSLIPEDTAVYYCAADRVWGTPQAYVPSQFDYWGQGTQVTVSS”, the “polyreactivity (PSR sort gate)” value is given as “low polyreactivity”.

“QVQLVESGGGLVQAGGSLRLSCAASGSTFAINAMGWYRQAPGKERELVAAITSGGGTNYADSVKGRFTISRDNAKNTVFLQMISLKPEDTAVYYCYGRVYWYYPMDYWGQGTQVTVSS”: the “polyreactivity (PSR sort gate)” value is given as “low polyreactivity”.

With “QVQLVESGGGLVQAGGSLRLSCAASGSTFAKNAMGWYRQAPGKERELVAAITASGGSTYYADSVKGRFTISRDNAKNTVSLQMNSLKPEDTAVYYCAKSSYLTRGSRYDYWGQGTQVTVSS”, the “polyreactivity (PSR sort gate)” value was “low polyreactivity”.

Take “QVQLVESGGGLVQAGGSLRLSCAASGSTFAKYAMGWYRQAPGKERELVAAIRSGGSTNYADSVKGRFTISRDNAKITVYLQMYSLKPEDTAVYYCAAKRDVSRPVYFRNDYWGQGTQVTVSS”: the “polyreactivity (PSR sort gate)” value is recorded as “low polyreactivity”.

Consider “QVQLVESGGGLVQAGGSLRLSCAASGSTFAKYAMGWYRQAPGKERELVASIRLSGGSTYYADSVKGRFTISRDNAKNPDYLQMNSLNPEDTAVYYFNKQFATFYYGFDYYYWGQGSQVTVSS”, for which the “polyreactivity (PSR sort gate)” value is “low polyreactivity”.

On to “QVQLVESGGGLVQAGGSLRLSCAASGSTFALYTMGWYRQAPGKERELVAAIRYGGGSTYYADSVKGRFTISRDNAKNTVYLQMNSLKPEDTAVYYCARDLYNLYSGSYYWGQGTQVTVSS”, for which the “polyreactivity (PSR sort gate)” value is “low polyreactivity”.

Consider “QVQLVESGGGLVQAGGSLRLSCAASGSTFAPNALGWSRQAPGKERELVAAIRTNTVSTYYADSVKGRFTISRDNAKNTVYLQMNSLKPEDTEVYYCAAVFSGFYYAYDYWGQGTQVTVSS”, for which the “polyreactivity (PSR sort gate)” value is given as “high polyreactivity”.

Consider “QVQLVESGGGLVQAGGSLRLSCAASGSTFAPNAMGWYRQAPGKEREFVASITWRGGSTYYADSVKGRFTISRDNAKNTVYLQMNSLKPEDTAVYYCANLKRGFYRLFGFRYDYWGQGTQVTVSS”, for which the “polyreactivity (PSR sort gate)” value is “low polyreactivity”.

Turning to “QVQLVESGGGLVQAGGSLRLSCAASGSTFAPNAMGWYRQAPGKERELVAAIRFDTGSTYYADSVKGRFTISRDNAKNTVYLQMNSLKPEDTAVYYCAAYNHYLSESDYWGQGTQVTVSS”, the “polyreactivity (PSR sort gate)” value is listed as “low polyreactivity”.

Consider “QVQLVESGGGLVQAGGSLRLSCAASGSTFAPYAMGWYRQAPGKERELVAAIRSSGGSTYYADSVKGRFTISRDNAKNTVYLQMNSLKPEDTAVYYCADDYYTSADYVDYYYWGQGTQVTVSS”, for which the “polyreactivity (PSR sort gate)” value is listed as “low polyreactivity”.

Turning to “QVQLVESGGGLVQAGGSLRLSCAASGSTFAQNGLGWYRQAPGKERELVAAITSSGSTNYADSVKGRFTISRDNAKNTVYLQMNSLKPEDTAVYYCAKDVLAPYTRHDYWGQGTQVTVSS”, the “polyreactivity (PSR sort gate)” value was “low polyreactivity”.

Consider “QVQLVESGGGLVQAGGSLRLSCAASGSTFASYAMGWYRQAPGKEREFVAAITRSGTSTYYADSVQGRFTISRDNAKNTVYLQMNSLKPEDTAVYYCNATRRTVGFGYWGQGTQVPVSS”, for which the “polyreactivity (PSR sort gate)” value is given as “high polyreactivity”.

Take “QVQLVESGGGLVQAGGSLRLSCAASGSTFATNTMGWYRQAPGKERELVARITSSDGSTTYADSVKGRFTISRDNAKNTDYLQMNSLKPEDTAVYYCAAAYGRRWGYDYWGQGTQVTVSS”: the “polyreactivity (PSR sort gate)” value is recorded as “low polyreactivity”.

Consider “QVQLVESGGGLVQAGGSLRLSCAASGSTFATYAMVWYRQAPGKERELVAAITSGGSTYYADSVKGRFTISRDNAKNTVYLQMNSLKPEDTAVYYCAARSYGWRRATYYKREEYWGQGTQVTVSS”, for which the “polyreactivity (PSR sort gate)” value was “high polyreactivity”.

On to “QVQLVESGGGLVQAGGSLRLSCAASGSTFATYTMGWYRQAPGKERELVAAISVSGSRTYYADSVKGRFTISRDNAKNTVYLQMNSLKPEDTAVYYCNTLLRPRWSYDYWGQGTQVTVSS”, for which the “polyreactivity (PSR sort gate)” value is listed as “high polyreactivity”.

For “QVQLVESGGGLVQAGGSLRLSCAASGSTFAVNAMGWYRQAPGKERELVAAISDSDGSTFYADSVKGRFTISRDNAKNTVYLQMNSLKPEDTAVYYCAATVYRVFRYSYLYYYWGQGTQVTVSS”, the “polyreactivity (PSR sort gate)” value is listed as “low polyreactivity”.

Regarding “QVQLVESGGGLVQAGGSLRLSCAASGSTFAVNAMGWYRQAPGKERELVAVITSSGGRTYADSVKGRFTISRDNAKNTVYLQMNSLKPEDTAVYYCAAVQGKVRGGYYWGQGTQVTVSS”, the “polyreactivity (PSR sort gate)” value is reported as “high polyreactivity”.

In the case of “QVQLVESGGGLVQAGGSLRLSCAASGSTFAVYAMGWYRQAPGKERELVAAITRSGGDTYYADSVKGRFTISRDNAKNTVYLQMNSLKPEDTAVYYCAAAPRYGEEYWGQGTQVTVSS”, the “polyreactivity (PSR sort gate)” value is given as “low polyreactivity”.

“QVQLVESGGGLVQAGGSLRLSCAASGSTFAVYAMGWYRQAPGKERELVAAITWSGGSTYYADSVKGRFTISRDNAKNTVYLQMNSLKPEDTAVYYCAATLIYHYWQLFIISTMGYWGQGTQVTVSS”: the “polyreactivity (PSR sort gate)” value is “low polyreactivity”.

For the sequence “QVQLVESGGGLVQAGGSLRLSCAASGSTFAWYAMGWYRQAPGKERELVAAISRTGRTYYADSVKGRFTISRDNAKNSVYLQMNSLKPEDTAVYYCAAKSIYDGFPYYLFDYWGQGTQVTVSS”, the “polyreactivity (PSR sort gate)” value was “high polyreactivity”.

Regarding “QVQLVESGGGLVQAGGSLRLSCAASGSTFAYNAMGWYRQAPGKERELVAAISFSGGSTYYADSVKGRFTLSRDNAKNTVYLQMNSLKQEDTAVYYCAKRGYPSTNGRQEGYWGQGTQVTVSS”, the “polyreactivity (PSR sort gate)” value is on record as “low polyreactivity”.

With “QVQLVESGGGLVQAGGSLRLSCAASGSTFAYNAMGWYRQAPGKERELVAAISYGGDDTYYADSVKGRFTISRDNAKNTVYLQMNSLKPEDTAVYYCNARSRTYRSALGNLYHYDYWGQGTQVTVSS”, the “polyreactivity (PSR sort gate)” value is “high polyreactivity”.

Regarding “QVQLVESGGGLVQAGGSLRLSCAASGSTFAYNDMGWYRQAPGKERELVADIRSGGNTNYADSVKGRFTISRDNAKNTVYLQMNSLKPEDTAVYYCATDGYRIDVYHPDYRYDYWGQCTQVTVSS”, the “polyreactivity (PSR sort gate)” value is recorded as “low polyreactivity”.

On to “QVQLVESGGGLVQAGGSLRLSCAASGSTFAYNDMGWYRQAPGKETELVADIRSGGNTNYADSVKGRFTISRDNAKNTVYLQMNSLKPEDTAVYYCATDGYRFDVYHPDYRYDYWGQGTQVTVSS”, for which the “polyreactivity (PSR sort gate)” value is reported as “low polyreactivity”.

As to “QVQLVESGGGLVQAGGSLRLSCAASGSTFAYNTMGWYRQAPGKERELVAAISQRGGSTYADTVKGRFTISRDNAKNTVYLQMNSLKPEENAVYYWAADGYTYKFDYWGQGTQVTVSS”, the “polyreactivity (PSR sort gate)” value is given as “low polyreactivity”.

As for “QVQLVESGGGLVQAGGSLRLSCAASGSTFAYYAMGRYRQAPGKERELVAAISTIAGRTYYADSVKGRFTISRDTAKNSVSLQMNSLNPEDTAFYYCNAYWWFFGGYDYWGQGTQVTVSS”, the “polyreactivity (PSR sort gate)” value is on record as “high polyreactivity”.

On to “QVQLVESGGGLVQAGGSLRLSCAASGSTFAYYAMGWYRKAPGKERELVAAISSGGSTYYADSVKGRFTISRDNAKNTVYLQMNSLKPEDTAVYYCNKLWVGKFKRYEFGYWGQGTQVTVSS”, for which the “polyreactivity (PSR sort gate)” value is given as “low polyreactivity”.

Regarding “QVQLVESGGGLVQAGGSLRLSCAASGSTFAYYAMGWYRQAPGKEREFVAAISTRGGSTYYADSVKGRFTISRDNAKNTLYLQMNSLKPEDTAVYYCAAGYFNYSWRIRFDYWGQGTQVTVSS”, the “polyreactivity (PSR sort gate)” value is reported as “high polyreactivity”.

Take “QVQLVESGGGLVQAGGSLRLSCAASGSTFAYYAMGWYRQAPGKERELVAAINYRATRTYYADSVKGRFTISRDNAKNTVYLQMNSLKPEDTAVYYCAAVSPNTAYDYWGQGTQVTVSS”: the “polyreactivity (PSR sort gate)” value is “high polyreactivity”.

As for “QVQLVESGGGLVQAGGSLRLSCAASGSTFAYYAMGWYRQAPGKERELVAAISWRGGSTYYADSVKGRFTISRDNAKNTVYLHMNSLKPEDTAVYYCATLSAWKASSYDYWGQGTQVTVSS”, the “polyreactivity (PSR sort gate)” value is “high polyreactivity”.
